Here are results for eight molecules from US20240417450A1 (UNIVERSITY OF TOKYO, published 2024).

The target in assay [1] is T1, E. coli wild-type SHMT, GST fusion protein (E. coli, UniProt P0A825 1-417).
T1 construct: Overexpressed in E. coli as a GST fusion protein, purified and immobilised on the ELISA plate at 2 ug/ml; not shown: Glutathione-S-transferase (GST) fusion partner
T1 sequence: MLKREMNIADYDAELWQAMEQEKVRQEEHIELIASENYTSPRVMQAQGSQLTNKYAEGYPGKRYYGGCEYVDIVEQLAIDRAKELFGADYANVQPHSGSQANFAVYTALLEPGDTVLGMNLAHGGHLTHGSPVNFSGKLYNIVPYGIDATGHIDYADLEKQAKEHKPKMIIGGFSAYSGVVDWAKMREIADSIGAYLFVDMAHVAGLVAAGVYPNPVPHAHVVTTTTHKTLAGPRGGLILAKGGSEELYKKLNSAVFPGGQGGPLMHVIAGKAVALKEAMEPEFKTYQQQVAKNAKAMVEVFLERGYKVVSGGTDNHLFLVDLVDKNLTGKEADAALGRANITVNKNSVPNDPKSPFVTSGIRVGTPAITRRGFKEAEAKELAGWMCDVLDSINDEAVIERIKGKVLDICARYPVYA
In words: ELISA, GST fusion protein immobilised at 2 ug/ml, antibody dilution series. A general note: In an ELISA, binding on a coated surface is turned into a signal by an enzyme label.

Another assay has as its target T2, E. coli iPGM (E. coli, UniProt P37689 1-514, limits assumed).
T2 sequence (looked up): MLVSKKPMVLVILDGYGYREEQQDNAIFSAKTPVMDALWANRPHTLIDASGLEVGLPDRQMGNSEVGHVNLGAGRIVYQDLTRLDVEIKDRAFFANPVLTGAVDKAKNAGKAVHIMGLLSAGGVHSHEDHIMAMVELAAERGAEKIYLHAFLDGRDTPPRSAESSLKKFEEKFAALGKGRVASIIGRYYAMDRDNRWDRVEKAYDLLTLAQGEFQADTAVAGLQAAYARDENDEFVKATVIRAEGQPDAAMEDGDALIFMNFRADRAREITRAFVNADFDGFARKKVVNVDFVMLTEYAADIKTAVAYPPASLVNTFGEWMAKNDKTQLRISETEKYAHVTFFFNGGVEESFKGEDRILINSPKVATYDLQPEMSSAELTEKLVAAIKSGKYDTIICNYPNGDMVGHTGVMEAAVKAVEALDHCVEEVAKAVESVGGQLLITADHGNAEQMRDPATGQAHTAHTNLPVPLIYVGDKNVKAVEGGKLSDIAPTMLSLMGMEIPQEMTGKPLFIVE
Briefly: Western blot.

The target of another assay is T3, E. coli SHMT (25-45) (E. coli).
T3 construct: Final purified peptide used for crystallisation
T3 peptide: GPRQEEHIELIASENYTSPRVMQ
Briefly: X-ray crystal structure of the Fab-peptide complex.

The target of assay [2] is T4, C. difficile iPGM (486-509) (C. difficile).
T4 construct: Final purified peptide used for crystallisation
T4 peptide: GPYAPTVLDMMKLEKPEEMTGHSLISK
In words: X-ray crystal structure of the Fab-peptide complex.

B1: RS_H007_L001 (antibody, V domains shown)
VH: EVQLQQSGSELVKSGASVKLSCTVSGFNFTNYYIHWVRQRTEQGLEWIGRIDPENNQTTYAPKFQGKATMTADTSSNTAYLQLTSLTSEDTAVYYCARSTVLDYWGHGTTLTVSS
VL: DVLMTQSPASLSVSLGDRATISCRASQSIVHTNGNTYLEWYLQKPGQSPKLLIYKVSNRFSGVPDRFSGSGSGTDFILKISRVEAEDLGVYYCFQGSHVPPTFGGGTKLEVK
For the molecule B1, in assay [1], the binding result was “binds”.

B2: W27G2 antibody (mouse hybridoma-producing IgA) (antibody, V domains shown)
VH: EVQLQQSGSELVKSGASVKLSCTVSGFNFTDYYIHWVRQRTEQGLEWIGRIDPENDETTYAPKFQGKATMTADTSSNTAYLQLTSLTSEDTAVYYCARSTVLDYWGHGTTLTVSS
VL: DVLMTQTPLSLPVSLGDQASISCRASQSIVHTNGNTYLEWYLQKPGQSPKLLIYKVSNRFSGVPDRFSGSGSGTDFILKISRVEAEDLGVYYCFQGSHVPPTFGGGTKLEVKR
notes: Hybridoma-producing IgA from intestinal mucosa lamina propria B cells; also called W27 antibody; W27G2-CHT
B2: the binding result in assay [1] is on record as “binds”; in the assay with E. coli iPGM, “no binding”.

B3: RS_H000_L000GR Fab (Fab, V domains shown)
VH: EVQLQQSGSELVKSGASVKLSCTVSGFNFTDYYIHWVRQRTEQGLEWIGRIDPENDETTYAPKFQGKATMTADTSSNTAYLQLTSLTSEDTAVYYCARSTVLDYWGHGTTLTVSS
VL: DVLMTQTPLSLPVSLGDQASISCRASQSIVHTNGNTYLEWYLQKPGQSPKLLIYKVSNRFSGVPDRFSGSGSGTDFILKISRVEAEDLGVYYCFQGSHVPPTFGGGTKLEVK
notes: Fab made by papain digestion of the W27 recombinant IgG expressed in CHO cells; also called IgG W27 Fab
In the case of B3, the binding result (with E. coli SHMT (25-45); in assay [2]) was “binds” each time.

B4: RS_H007_L005 (antibody, V domains shown)
VH: EVQLQQSGSELVKSGASVKLSCTVSGFNFTNYYIHWVRQRTEQGLEWIGRIDPENNQTTYAPKFQGKATMTADTSSNTAYLQLTSLTSEDTAVYYCARSTVLDYWGHGTTLTVSS
VL: DVLMTQSPASLSVSLGDRATISCRSSQSIVHTNGNTYLEWYLQKPGQSPKLLIYKVSNRFSGVPDRFSGSGSGTDFILKISRVEAEDLGVYYCFQGSHVPPTFGGGTKLEVK
For B4, the binding result in assay [1] is recorded as “binds”.

B5: RS_H007_L004 (antibody, V domains shown)
VH: EVQLQQSGSELVKSGASVKLSCTVSGFNFTNYYIHWVRQRTEQGLEWIGRIDPENNQTTYAPKFQGKATMTADTSSNTAYLQLTSLTSEDTAVYYCARSTVLDYWGHGTTLTVSS
VL: DVLMTQSPASMSVSLGDRATISCRSSQSIVHTNGNTYLEWYLQKPGQSPKLLIYKVSNRFSGVPDRFSGSGSGTDFILKISRVEAEDLGVYYCFQGSHVPPTFGGGTKLEVK
On to B5, for which the binding result in assay [1] was “binds”.

B6: RS_H007_L002 (antibody, V domains shown)
VH: EVQLQQSGSELVKSGASVKLSCTVSGFNFTNYYIHWVRQRTEQGLEWIGRIDPENNQTTYAPKFQGKATMTADTSSNTAYLQLTSLTSEDTAVYYCARSTVLDYWGHGTTLTVSS
VL: DVLMTQSPASLSVSLGDRVTISCRASQSIVHTNGNTYLEWYLQKPGQSPKLLIYKVSNRFSGVPDRFSGSGSGTDFILKISRVEAEDLGVYYCFQGSHVPPTFGGGTKLEVK
On to B6, for which, in assay [1], the binding result was “binds”.

B7: RS_H000_L005 (antibody, V domains shown)
VH: EVQLQQSGSELVKSGASVKLSCTVSGFNFTDYYIHWVRQRTEQGLEWIGRIDPENDETTYAPKFQGKATMTADTSSNTAYLQLTSLTSEDTAVYYCARSTVLDYWGHGTTLTVSS
VL: DVLMTQSPASLSVSLGDRATISCRSSQSIVHTNGNTYLEWYLQKPGQSPKLLIYKVSNRFSGVPDRFSGSGSGTDFILKISRVEAEDLGVYYCFQGSHVPPTFGGGTKLEVK
Regarding B7, the binding result in assay [1] is “binds”.

B8: RS_H000_L001 (antibody, V domains shown)
VH: EVQLQQSGSELVKSGASVKLSCTVSGFNFTDYYIHWVRQRTEQGLEWIGRIDPENDETTYAPKFQGKATMTADTSSNTAYLQLTSLTSEDTAVYYCARSTVLDYWGHGTTLTVSS
VL: DVLMTQSPASLSVSLGDRATISCRASQSIVHTNGNTYLEWYLQKPGQSPKLLIYKVSNRFSGVPDRFSGSGSGTDFILKISRVEAEDLGVYYCFQGSHVPPTFGGGTKLEVK
notes: recombinant multimeric IgA made with H, L and J chain vectors (mainly dimers by SDS-PAGE); also called rW27
Regarding B8, in assay [1], the binding result is “binds”.
